One assay concerns the target HLA-A*02:01. Put plainly: IEDB peptide-MHC binding, purified MHC/competitive/fluorescence; filed as Kd, often an IC50 or EC50 that approximates it; ≥ and ≤ were set here for values at or beyond the usual limits of such assays.
Assay [1] deals with HLA-A*02:03. Described as above.
In assay [2] the target is HLA-A*02:11. The assay is described as above.
The target of assay [3] is HLA-A*02:12. Described as above.
Assay [4] deals with HLA-A*02:16. The description is as above.
The target in assay [5] is HLA-A*02:19. The assay is described as above.
In assay [6] the target is HLA-A*03:01. The assay is described as above.
Assay [7] has as its target HLA-A*24:03. The assay is described as above.
The next assay concerns the target HLA-A*26:01. The assay is described as above.
The target in a further assay is HLA-A*68:02. Described as above.
The target in the next assay is HLA-A*69:01. The assay is described as above.
Another assay has as its target HLA-B*15:01. The assay is described as above.
The target in the next assay is HLA-B*15:17. The description is as above. Particulars: source organism: Homo sapiens.
In another assay the target is HLA-B*18:01. Described as above.
In the next assay the target is HLA-B*27:03. Described as above.
Assay [8] deals with HLA-B*39:01. The assay is described as above.
Another assay addresses HLA-B*46:01. The description is as above.
The next assay addresses HLA-B*57:01. Described as above.
A further assay addresses HLA-B*51:01. The description is as above.
Assay [9] deals with HLA-A*02:03. The assay is described as follows: IEDB peptide-MHC binding, purified MHC/direct/fluorescence; filed as Kd, often an IC50 or EC50 that approximates it; ≥ and ≤ were set here for values at or beyond the usual limits of such assays. Particulars: source organism: Limestone Canyon virus.
In assay [10] the target is HLA-A*02:11. The assay is described as above. As to conditions: source organism: Limestone Canyon virus.
The target in assay [11] is HLA-A*02:12. The assay is described as above. As to conditions: source organism: Limestone Canyon virus.
For assay [12], the target named is HLA-A*02:16. The description is as above. Particulars: source organism: Limestone Canyon virus.
The target of assay [13] is HLA-A*02:19. The assay is described as above. Particulars: source organism: Limestone Canyon virus.
Assay [14] concerns the target HLA-A*03:01. The assay is described as above. As to conditions: source organism: Limestone Canyon virus.
Assay [15] deals with HLA-A*24:03. The description is as above. Particulars: source organism: Limestone Canyon virus.
Another assay concerns the target HLA-A*29:02. Described as above. As to conditions: source organism: Limestone Canyon virus.
For assay [16], the target named is HLA-B*39:01. The assay is described as above. As to conditions: source organism: Orthohantavirus sinnombreense.
The mark [17] stands for this setting: source organism: Listeria monocytogenes serotype 4b str. H7858.
Setting [18] is: source organism: Orthohantavirus sinnombreense.

Bounds are passed on as bounds.

Broadly, the Kd is the concentration at which binding is half-saturated. High values mean lower affinity, low ones higher affinity. FWAWSVLRV: the Kd in the assay with HLA-A*02:01 (source organism: Homo sapiens), in the assay with HLA-A*02:03 [1] (source organism: Homo sapiens), with HLA-A*02:11 [2] (source organism: Homo sapiens), with HLA-A*02:12 [3] (source organism: Homo sapiens), with HLA-A*02:16 [4] (source organism: Homo sapiens) and in the assay with HLA-A*02:19 [5] (source organism: Homo sapiens) was not below 20 µM in each case. Further, the Kd with HLA-A*03:01 [6] (source organism: Homo sapiens), with HLA-A*24:03 [7] (source organism: Homo sapiens), with HLA-A*26:01 (source organism: Homo sapiens), in the assay with HLA-A*68:02 (source organism: Homo sapiens), with HLA-A*69:01 (source organism: Homo sapiens) and with HLA-B*15:01 (source organism: Homo sapiens) was not below 20 µM throughout. Also, the Kd in the assay with HLA-B*15:17, with HLA-B*18:01 (source organism: Homo sapiens), in the assay with HLA-B*27:03 (source organism: Homo sapiens), with HLA-B*39:01 [8] (source organism: Homo sapiens), in the assay with HLA-B*46:01 (source organism: Homo sapiens) and with HLA-B*57:01 (source organism: Homo sapiens) was not below 20 µM in each case.

As to ITWPRTRHW, the equilibrium dissociation constant (Kd) with HLA-A*02:01 (setting [17]), with HLA-A*02:03 [1] (setting [17]), with HLA-A*02:11 [2] (setting [17]), with HLA-A*02:12 [3] (setting [17]), with HLA-A*02:16 [4] (setting [17]) and with HLA-A*02:19 [5] (setting [17]) was not below 20 µM each time. Moreover, the Kd with HLA-A*03:01 [6] (setting [17]), in the assay with HLA-A*24:03 [7] (setting [17]), with HLA-A*26:01 (setting [17]), with HLA-A*68:02 (setting [17]), in the assay with HLA-A*69:01 (setting [17]) and with HLA-B*15:01 (setting [17]) was not below 20 µM in each case. In addition, the dissociation constant Kd was not below 20 µM with HLA-B*18:01 (setting [17]); not below 20 µM in the assay with HLA-B*27:03 (setting [17]); not below 20 µM with HLA-B*39:01 [8] (setting [17]); not below 20 µM with HLA-B*46:01 (setting [17]); not below 20 µM with HLA-B*51:01 (setting [17]); 0.033 µM with HLA-B*57:01 (setting [17]).

For YKSRCYVGL, the Kd with HLA-A*02:03 [9], in the assay with HLA-A*02:11 [10], in the assay with HLA-A*02:12 [11], with HLA-A*02:16 [12], with HLA-A*02:19 [13] and in the assay with HLA-A*03:01 [14] was not below 20 µM each time. Moreover, the Kd in the assay with HLA-A*24:03 [15] was not below 20 µM; with HLA-A*29:02 it was not below 20 µM; with HLA-B*39:01 [16] it was 293 nM; with HLA-A*02:01 (setting [18]) it was not below 20 µM; with HLA-A*26:01 (setting [18]), not below 20 µM; in the assay with HLA-B*15:01 (setting [18]), not below 20 µM. Moreover, the Kd in the assay with HLA-B*18:01 (setting [18]), with HLA-B*27:03 (setting [18]), in the assay with HLA-B*46:01 (setting [18]), with HLA-B*51:01 (setting [18]) and with HLA-B*57:01 (setting [18]) was not below 20 µM in each case.

These data come from the Immune Epitope Database (IEDB).
